Reference: patent publication US20020086983A1

Tests used:
[1] = biological target: B42-Mch5b-FDH (residues 3-177) (UniProt Q14790); test: yeast two-hybrid liquid b-gal assay; four independent experiments
[2] = biological target: B42-Mch5b-FDH-B (residues 102-177) (UniProt Q14790); test: as above
[3] = biological target: B42-Mch5b-FDH-A (residues 3-80) (UniProt Q14790); test: as above
[4] = biological target: B42; test: yeast two-hybrid liquid b-gal assay; activation hybrid alone (background control); four independent experiments

B42-Mch5b-FDH-A (residues 3-80), sequence (Q14790 3-80, form in doubt): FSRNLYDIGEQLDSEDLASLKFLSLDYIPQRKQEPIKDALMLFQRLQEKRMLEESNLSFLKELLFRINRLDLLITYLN
B42-Mch5b-FDH (residues 3-177), sequence (Q14790 3-177, form in doubt): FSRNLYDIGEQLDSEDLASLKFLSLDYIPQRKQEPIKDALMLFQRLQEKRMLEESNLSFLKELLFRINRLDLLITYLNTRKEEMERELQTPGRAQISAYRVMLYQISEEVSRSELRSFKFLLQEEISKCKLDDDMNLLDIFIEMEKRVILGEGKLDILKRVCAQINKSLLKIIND
B42-Mch5b-FDH-B (residues 102-177), sequence (Q14790 102-177, form in doubt): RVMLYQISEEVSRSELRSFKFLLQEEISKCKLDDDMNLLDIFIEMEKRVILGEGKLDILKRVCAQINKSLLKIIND

Liquid assay b-gal activity [1]: 300 Miller units
Liquid assay b-gal activity [2]: 728 Miller units
Liquid assay b-gal activity [3]: 52.7 Miller units
Liquid assay b-gal activity [4]: 23.2 Miller units
Substance: LexA-FLAME-1-FDH (residues 1-160) (from UniProt O15519 1-160)
